US20140274782A1, “AFFINITY REAGENTS AND METHODS FOR DETECTION, PURIFICATION, AND PROTEOMIC ANALYSIS OF METHYLATED PROTEINS” (The Board of Trustees of the Leland Stanford Junior …, priority 2013, published 2014)

T1: G9a and GLP (Homo sapiens, UniProt Q96KQ7+Q9H9B1)
T1 sequence (Q96KQ7 2-1210 limits assumed): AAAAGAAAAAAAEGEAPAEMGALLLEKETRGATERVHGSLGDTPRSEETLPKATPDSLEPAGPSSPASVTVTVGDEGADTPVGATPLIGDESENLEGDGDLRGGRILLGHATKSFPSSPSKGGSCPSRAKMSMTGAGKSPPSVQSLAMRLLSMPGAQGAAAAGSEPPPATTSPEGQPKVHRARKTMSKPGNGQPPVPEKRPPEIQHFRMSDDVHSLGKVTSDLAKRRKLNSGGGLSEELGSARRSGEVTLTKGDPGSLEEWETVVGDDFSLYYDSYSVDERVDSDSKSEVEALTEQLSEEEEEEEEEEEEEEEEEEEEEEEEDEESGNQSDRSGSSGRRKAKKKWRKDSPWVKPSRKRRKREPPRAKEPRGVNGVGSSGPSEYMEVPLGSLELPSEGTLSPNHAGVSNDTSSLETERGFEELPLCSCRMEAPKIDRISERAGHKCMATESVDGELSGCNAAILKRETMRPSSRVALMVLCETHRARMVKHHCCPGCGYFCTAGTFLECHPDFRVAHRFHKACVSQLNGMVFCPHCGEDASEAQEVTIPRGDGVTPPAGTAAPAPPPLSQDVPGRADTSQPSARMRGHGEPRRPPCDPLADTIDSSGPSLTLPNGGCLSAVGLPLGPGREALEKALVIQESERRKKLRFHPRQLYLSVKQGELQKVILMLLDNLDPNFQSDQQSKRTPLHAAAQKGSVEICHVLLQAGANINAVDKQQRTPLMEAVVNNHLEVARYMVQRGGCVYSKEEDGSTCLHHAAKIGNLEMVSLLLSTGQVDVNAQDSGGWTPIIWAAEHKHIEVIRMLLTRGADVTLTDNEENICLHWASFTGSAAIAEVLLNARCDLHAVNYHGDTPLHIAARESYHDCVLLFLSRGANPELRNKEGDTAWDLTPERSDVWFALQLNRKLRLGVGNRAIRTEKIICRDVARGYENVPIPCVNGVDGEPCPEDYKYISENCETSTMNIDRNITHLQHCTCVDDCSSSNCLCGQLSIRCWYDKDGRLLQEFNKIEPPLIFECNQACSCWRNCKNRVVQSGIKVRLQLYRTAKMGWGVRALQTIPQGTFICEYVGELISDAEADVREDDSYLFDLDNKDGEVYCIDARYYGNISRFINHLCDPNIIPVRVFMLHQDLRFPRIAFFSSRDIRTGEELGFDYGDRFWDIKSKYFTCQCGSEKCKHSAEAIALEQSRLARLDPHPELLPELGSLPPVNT
T1 sequence (Q9H9B1 2-1298 limits assumed): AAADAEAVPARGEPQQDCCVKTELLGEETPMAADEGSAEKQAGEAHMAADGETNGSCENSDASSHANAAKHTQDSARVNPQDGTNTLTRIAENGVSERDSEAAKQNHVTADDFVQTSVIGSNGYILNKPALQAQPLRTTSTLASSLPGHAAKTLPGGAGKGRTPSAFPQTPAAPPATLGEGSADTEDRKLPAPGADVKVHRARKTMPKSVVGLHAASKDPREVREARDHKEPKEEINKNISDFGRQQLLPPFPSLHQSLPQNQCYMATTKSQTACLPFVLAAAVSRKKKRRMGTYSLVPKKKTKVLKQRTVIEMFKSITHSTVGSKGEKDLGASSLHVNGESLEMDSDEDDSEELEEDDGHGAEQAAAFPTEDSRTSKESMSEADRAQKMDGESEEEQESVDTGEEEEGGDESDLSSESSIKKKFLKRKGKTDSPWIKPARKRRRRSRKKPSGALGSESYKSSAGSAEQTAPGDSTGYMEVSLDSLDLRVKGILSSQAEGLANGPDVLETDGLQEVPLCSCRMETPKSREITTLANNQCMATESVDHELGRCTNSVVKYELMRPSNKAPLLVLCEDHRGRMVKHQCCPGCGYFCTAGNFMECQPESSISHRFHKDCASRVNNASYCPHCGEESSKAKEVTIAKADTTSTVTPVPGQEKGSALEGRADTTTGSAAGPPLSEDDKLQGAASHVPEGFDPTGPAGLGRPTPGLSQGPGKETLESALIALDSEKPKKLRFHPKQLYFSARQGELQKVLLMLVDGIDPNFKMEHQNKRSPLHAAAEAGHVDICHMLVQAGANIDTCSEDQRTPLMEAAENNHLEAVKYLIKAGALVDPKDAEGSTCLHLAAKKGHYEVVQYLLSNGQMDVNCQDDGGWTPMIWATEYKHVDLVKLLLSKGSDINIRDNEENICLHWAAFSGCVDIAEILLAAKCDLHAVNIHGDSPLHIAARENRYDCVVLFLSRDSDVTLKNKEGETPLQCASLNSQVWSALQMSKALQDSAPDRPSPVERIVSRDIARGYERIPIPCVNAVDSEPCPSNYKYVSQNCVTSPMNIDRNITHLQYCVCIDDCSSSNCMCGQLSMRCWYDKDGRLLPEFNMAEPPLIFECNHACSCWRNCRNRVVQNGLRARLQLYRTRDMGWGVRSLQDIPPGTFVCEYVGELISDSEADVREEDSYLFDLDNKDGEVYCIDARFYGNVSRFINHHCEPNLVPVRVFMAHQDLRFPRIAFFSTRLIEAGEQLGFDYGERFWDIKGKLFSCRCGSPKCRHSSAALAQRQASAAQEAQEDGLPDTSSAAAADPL


Columns and labels:
3×MBT domain of L3MBTL1 = assay: Triple SILAC pull-down, 3xMBT/3xMBTD355N ratio (cytoplasmic, nuclear and chromatin fractions of 293T cells); type: binding, human; settings: SILAC ratio, pull-down 3xMBT vs 3xMBTD355N; for 3xMBT/D355N UNC Heavy: experiment with UNC0638 in heavy SILAC media; for 3xMBT/D355N UNC Light: experiment with UNC0638 in light SILAC media;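 on all read-outs here: proteins quantified with MaxQuant, requiring at least two unique peptides and quantification in both label directions, normalized to the mean of proteins from a digested loading control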
G9a and GLP = molecular target: T1, G9a and GLP; assay: Triple SILAC pull-down after UNC0638 treatment of 293T cells, DMSO/UNC0638 ratio of protein captured by 3×MBT; type: cell-based; parameters: endogenous in cells; host or cells: HEK 293T; settings: for Relative to UNC0638 UNC Heavy / Relative to UNC0638 UNC Light: SILAC ratio DMSO/UNC0638 of protein pulled down with 3xMBT; for Relative to UNC0638 UNC Heavy: UNC0638 in heavy SILAC media; for Relative to UNC0638 UNC Light: UNC0638 in light SILAC media; for Relative to UNC0638 Average: average of UNC Light and UNC Heavy experiments;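 on all read-outs here: mass spectrometry (Q-Exactive) SILAC quantitation, DMSO/UNC0638 ratio computed after subtracting 3×MBTD355N mutant pull-down background, only proteins with at least twofold 3×MBT over mutant signal considered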

Row | Molecule | Relative to UNC0638 UNC Heavy (G9a and GLP) [log base 2] | Relative to UNC0638 UNC Light (G9a and GLP) [log base 2] | Relative to UNC0638 Average (G9a and GLP) [log base 2] | 3xMBT/D355N UNC Heavy (3×MBT domain of L3MBTL1) [log base 2] | 3xMBT/D355N UNC Light (3×MBT domain of L3MBTL1) [log base 2]
1 | DNAJC2 (protein, UniProt Q99543 1-621, looked up) DnaJ homolog subfamily C …: MLLLPSAADGRGTAITHALTSASTLCQVEPVGRWFEAFVKRRNRNASASFQELEDKKELSEESEDEELQLEEFPMLKTLDPKDWKNQDHYAVLGLGHVRYKATQRQIKAAHKAMVLKHHPDKRKAAGEPIKEGDNDYFTCITKAYEMLSDPVKRRAFNSVDPTFDNSVPSKSEAKDNFFEVFTPVFERNSRWSNKKNVPKLGDMNSSFEDVDIFYSFWYNFDSWREFSYLDEEEKEKAECRDERRWIEKQNRATRAQRKKEEMNRIRTLVDNAYSCDPRIKKFKEEEKAKKEAEKKAKAEAKRKEQEAKEKQRQAELEAARLAKEKEEEEVRQQALLAKKEKDIQKKAIKKERQKLRNSCKTWNHFSDNEAERVKMMEEVEKLCDRLELASLQCLNETLTSCTKEVGKAALEKQIEEINEQIRKEKEEAEARMRQASKNTEKSTGGGGNGSKNWSEDDLQLLIKAVNLFPAGTNSRWEVIANYMNIHSSSGVKRTAKDVIGKAKSLQKLDPHQKDDINKKAFDKFKKEHGVVPQADNATPSERFEGPYTDFTPWTTEEQKLLEQALKTYPVNTPERWEKIAEAVPGRTKKDCMKRYKELVEMVKAKKAAQEQVLNASRAKK | 0.28 | 0.33 | 0.30 | 2.18 | 3.04
2 | CLASP2 (protein, UniProt O75122 1-1294, looked up) CLIP-associating protein 2: MAMGDDKSFDDEESVDGNRPSSAASAFKVPAPKTSGNPANSARKPGSAGGPKVGGASKEGGAGAVDEDDFIKAFTDVPSIQIYSSRELEETLNKIREILSDDKHDWDQRANALKKIRSLLVAGAAQYDCFFQHLRLLDGALKLSAKDLRSQVVREACITVAHLSTVLGNKFDHGAEAIVPTLFNLVPNSAKVMATSGCAAIRFIIRHTHVPRLIPLITSNCTSKSVPVRRRSFEFLDLLLQEWQTHSLERHAAVLVETIKKGIHDADAEARVEARKTYMGLRNHFPGEAETLYNSLEPSYQKSLQTYLKSSGSVASLPQSDRSSSSSQESLNRPFSSKWSTANPSTVAGRVSAGSSKASSLPGSLQRSRSDIDVNAAAGAKAHHAAGQSVRSGRLGAGALNAGSYASLEDTSDKLDGTASEDGRVRAKLSAPLAGMGNAKADSRGRSRTKMVSQSQPGSRSGSPGRVLTTTALSTVSSGVQRVLVNSASAQKRSKIPRSQGCSREASPSRLSVARSSRIPRPSVSQGCSREASRESSRDTSPVRSFQPLASRHHSRSTGALYAPEVYGASGPGYGISQSSRLSSSVSAMRVLNTGSDVEEAVADALKKPARRRYESYGMHSDDDANSDASSACSERSYSSRNGSIPTYMRQTEDVAEVLNRCASSNWSERKEGLLGLQNLLKNQRTLSRVELKRLCEIFTRMFADPHGKRVFSMFLETLVDFIQVHKDDLQDWLFVLLTQLLKKMGADLLGSVQAKVQKALDVTRESFPNDLQFNILMRFTVDQTQTPSLKVKVAILKYIETLAKQMDPGDFINSSETRLAVSRVITWTTEPKSSDVRKAAQSVLISLFELNTPEFTMLLGALPKTFQDGATKLLHNHLRNTGNGTQSSMGSPLTRPTPRSPANWSSPLTSPTNTSQNTLSPSAFDYDTENMNSEDIYSSLRGVTEAIQNFSFRSQEDMNEPLKRDSKKDDGDSMCGGPGMSDPRAGGDATDSSQTALDNKASLLHSMPTHSSPRSRDYNPYNYSDSISPFNKSALKEAMFDDDADQFPDDLSLDHSDLVAELLKELSNHNERVEERKIALYELMKLTQEESFSVWDEHFKTILLLLLETLGDKEPTIRALALKVLREILRHQPARFKNYAELTVMKTLEAHKDPHKEVVRSAEEAASVLATSISPEQCIKVLCPIIQTADYPINLAAIKMQTKVIERVSKETLNLLLPEIMPGLIQGYDNSESSVRKACVFCLVAVHAVIGDELKPHLSQLTGSKMKLLNLYIKRAQTGSGGADPTTDVSGQS | 0.45 | 0.19 | 0.32 | 2.43 | 2.10

The next lines start with results.

Row | Relative to UNC0638 UNC Heavy (G9a and GLP) [log base 2] | Relative to UNC0638 UNC Light (G9a and GLP) [log base 2] | Relative to UNC0638 Average (G9a and GLP) [log base 2] | Molecule | 3xMBT/D355N UNC Heavy (3×MBT domain of L3MBTL1) [log base 2] | 3xMBT/D355N UNC Light (3×MBT domain of L3MBTL1) [log base 2]
3 | 0.39 | 0.14 | 0.26 | POLDIP3 (protein, UniProt Q9BY77 2-421, looked up) Polymerase delta-interacting …: ADISLDELIRKRGAAAKGRLNARPGVGGVRSRVGIQQGLLSQSTRTATFQQRFDARQKIGLSDARLKLGVKDAREKLLQKDARFRIKGKVQDAREMLNSRKQQTTVPQKPRQVADAREKISLKRSSPAAFINPPIGTVTPALKLTKTIQVPQQKAMAPLHPHPAGMRINVVNNHQAKQNLYDLDEDDDGIASVPTKQMKFAASGGFLHHMAGLSSSKLSMSKALPLTKVVQNDAYTAPALPSSIRTKALTNMSRTLVNKEEPPKELPAAEPVLSPLEGTKMTVNNLHPRVTEEDIVELFCVCGALKRARLVHPGVAEVVFVKKDDAITAYKKYNNRCLDGQPMKCNLHMNGNVITSDQPILLRLSDSPSMKKESELPRRVNSASSSNPPAEVDPDTILKALFKSSGASVTTQPTEFKIKL | 2.51 | 2.76
4 | 0.14 | 0.38 | 0.26 | TXN (protein, UniProt P10599 2-105, looked up) Thioredoxin: VKQIESKTAFQEALDAAGDKLVVVDFSATWCGPCKMIKPFFHSLSEKYSNVIFLEVDVDDCQDVASECEVKCMPTFQFFKKGQKVGEFSGANKEKLEATINELV | 1.75 | 1.93
